Test results: the supplement of paper PMC10567573

B1: ZNF263 (parent)
chain: QPKKLHLCPLCGKNFSNNSNLIRH

Variants of: B1
Assay: protein stability index of a GFP-peptide fusion (GPS, HEK-293T) (PSI 1-6); higher = more stable
Details: c terminus: a fixed tail appended
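Further: lentivirally expressed fusions sorted by FACS into six bins by GFP to DsRed ratio, PSI derived from sequencing read proportions per bin multiplied by bin number.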

Protein stability index: each site, then its substitutions
G12: D 2.11, V 2.36, E 2, F 1.39, W 1.94, P 2.3, I 2.44, Y 2.68, T 3.13, R 2.34, H 2.4, K 2.13, C 2.47, L 2.07, M 1.79, N 2.45, S 1.99, A 2.27, Q 2.53
S19: T 2.75, I 2.58, E 3.14, F 2.54, D 3.24, A 2.65, C 3.3, G 1.96, L 2.96, N 2.89, V 2.43, W 2.67, H 2.55, Q 2.69, R 2.5, Y 2.6, P 1.77, M 2.7, K 3.37
N14: R 2.35, C 3.93, Y 2.57, S 3.48, L 2.84, G 2.63, E 3.52, M 2.83, V 3.04, A 3.29, Q 3.1, W 3.51, K 2.94, T 2.97, I 3.33, D 2.08, H 3.06, P 2.61, F 2.69
N17: D 2.48, F 2.06, P 2.33, S 2.66, W 2.15, T 2.91, R 2.07, M 2.26, C 2.33, K 2.28, H 2.43, L 2.58, A 2.69, E 2.33, I 2.25, Q 2.42, Y 2.23, V 2.18, G 2.09
C11: P 3.36, L 2.41, S 2.74, N 2.8, H 2.88, T 3.11, Y 1.68, R 2.83, Q 2.91, K 2.62, I 2.16, M 2.07, W 1.74, V 2.48
N20: A 3.25
F15: N 2.45, E 2.07, Y 2.46, M 1.99, I 2.36, V 1.82, S 2.19, T 1.95, Q 1.89, H 3.33, R 2.61, G 1.8, W 1.95, C 2.53, L 2, D 2.56, K 2.06, P 2.22, A 2.03
K13: F 2.51, V 2, Y 2.91, G 2.24, I 1.89, W 1.8, T 2.15, D 1.67, M 2.69, N 2.77, S 2.41, Q 2.11, A 3.12, L 2.21, R 2.53, C 2.47, E 2.29, H 2.62, P 1.82
N18: E 3.66, Y 3.22, G 1.8, A 2.97, W 2.73, S 2.39, H 2.82, L 3.11, D 2.8, R 3.36, F 2.76, M 2.5, K 2.31, T 2.45, P 3.28, I 2.33, V 2.86, C 2.48, Q 3.17
S16: F 2.48, Y 2.6, K 2.56, I 2.36, D 2.72, C 2.57, Q 2.44, R 2.17, G 3.42, P 2.49, N 2.38, A 2.4, W 2.09, L 2.34, V 2.05, E 2.62, M 2.96, H 2.42, T 2.21
